Columns and labels:
[1] = target: PmoA-eGFP (subunit A of the particulate methane monooxygenase enzyme complex, eGFP at the C-terminus) (UniProt Q607G3); assay: FRET or BRET; FRET-FLIM in living tobacco leaf epidermal cells; eGFP fusion as donor, mRFP fusion as acceptor; two-photon excitation at 920 nm, TCSPC; lifetime of the donor with acceptor compared with donor alone; region of interest on the nucleus
[2] = target: eGFP-PmoA (subunit A of the particulate methane monooxygenase enzyme complex, eGFP at the N-terminus) (UniProt Q607G3); assay: as above

average eGFP (donor) fluorescence lifetime with acceptor [1]	Δ (reduction of donor lifetime against donor alone) [1]	average eGFP (donor) fluorescence lifetime with acceptor [2]	Δ (reduction of donor lifetime against donor alone) [2]	Substance
2.2 ns	0.2 ns	2.2 ns	0.2 ns	mRFP-PmoC (subunit C of the particulate methane monooxygenase enzyme complex, mRFP at the N-terminus) (natural protein)
2.2 ns	0.2 ns			PmoC-mRFP (subunit C of the particulate methane monooxygenase enzyme complex, mRFP at the C-terminus) (natural protein)
